Biological target: serine acetyltransferase
Experiment: Serine acetyltransferase enzyme activity test with and without L-cysteine (inhibitor constant Ki, specific activity)
Type: biochemical, E. coli
Conditions: for Ki: inhibitor L-cysteine
Text: Any method which enables the activity of the serine acetyltransferase to be determined in the presence of cysteine can be used for determining the cysteine sensitivity of this enzyme. For example, the serine acetyltransferase activity can be determined using the method described by Kredich and Tomkins, J. Biol. Chem. 241: 4955-4965 (1966). In this test, the enzyme test mixture contains the substrate, L-serine, and the cofactor, acetyl-coenzyme A. The reaction is started by adding enzyme and monitored, in a spectro photometer, by observing the decrease in absorption at 232 nm which is elicited by the cleavage of the thioester bond in the acetyl-coenzyme A.
The above-described enzyme test is suitable for determining the cysteine sensitivity of any serine acetyltransferase enzyme, including the enzymes which have a modified carboxyl terminus. Inhibition of the serine acetyltransferase activity is tested in the presence of differing concentrations of L-cysteine in the reaction mixture. The catalytic activity of the different serine acetyltransferase enzymes is determined in the presence and absence of L-cysteine, and the inhibitor constant, Ki, is ascertained from this (Kredich and Tomkins, J. Biol. Chem., 241, 4955-4965 (1966)).
In order to investigate the biochemical basis of the cysteine secretion of the revertants, the activity of the serine acetyltransferase was determined in vitro, and the ability of cysteine to inhibit the enzyme was measured. For the determination, use was made of S30 extracts (cell homogenates centrifuged at 30,000 g and 4° C. for 20 minutes) of the selected revertants, the starting strains and the comparison strain, E. coli W3110 (ATTC 27325).
The biochemical parameters such as enzyme activity and inhibitor constant, Ki, were determined in an analogous manner to that described in Example 1.
The plasmids resulting from this cloning were designated pACYC184/cysE-Del in accordance with the extent of their deletion (cf. FIG. 9 for the plasmid map). Determination of the enzymic activity and the inhibitor constant, Ki, and also the cross-feeding test, were carried out in analogy with the description in Example 1. DNA sequence analysis was used to confirm that the deletions had been correctly introduced.
Determination of the enzymic activity and of the inhibitor constant Ki, and also the cross-feeding test, were carried out in analogy with the description in Example 1.

[1] = Table 1a, 1 mM L-serine, 0.1 mM acetyl-CoA
[2] = Table 1a, serine acetyltransferase activity
[3] = Table 2, alleles from chemical mutagenesis
[4] = Table 1b, carboxyterminal deletions
[5] = Table 6, carboxyterminal deletions

Row | Molecule | Ki [1] [µM] | spec. act. [2] [µmol/min/mg] | Ki [3] [µM] | spec. act. [4] [μmol/min x mg] | Ki [4] [µM] | Ki [5] [µM]
1 | cysEII: feedback-resistant serine acetyltransferase allele, Gly238->Ser238 (protein, UniProt P0A9D4 1-273, looked up, variant G238S) Serine acetyltransferase: MSCEELEIVWNNIKAEARTLADCEPMLASFYHATLLKHENLGSALSYMLANKLSSPIMPAIAIREVVEEAYAADPEMIASAACDIQAVRTRDPAVDKYSTPLLYLKGFHALQAYRIGHWLWNQGRRALAIFLQNQVSVTFQVDIHPAAKIGRGIMLDHATGIVVGETAVIENDVSILQSVTLGGTGKSGGDRHPKIREGVMIGAGAKILGNIEVGRGAKIGAGSVVLQPVPPHTTAASVPARIVGKPDSDKPSMDMDQHFNGINHTFEYGDGI | 10 | 0.068 | 10 | – | – | –
2 | cysEIII: feedback-resistant serine acetyltransferase allele, Gly165->Asp165 (protein, UniProt P0A9D4 1-273, looked up, variant G165D) Serine acetyltransferase: MSCEELEIVWNNIKAEARTLADCEPMLASFYHATLLKHENLGSALSYMLANKLSSPIMPAIAIREVVEEAYAADPEMIASAACDIQAVRTRDPAVDKYSTPLLYLKGFHALQAYRIGHWLWNQGRRALAIFLQNQVSVTFQVDIHPAAKIGRGIMLDHATGIVVDETAVIENDVSILQSVTLGGTGKSGGDRHPKIREGVMIGAGAKILGNIEVGRGAKIGAGSVVLQPVPPHTTAAGVPARIVGKPDSDKPSMDMDQHFNGINHTFEYGDGI | 10 | 0.030 | 10 | – | – | –
3 | cysE-Del259: carboxyterminal deletion of 14 amino acids, terminal His259 (protein, UniProt P0A9D4 1-259, looked up, fragment) MSCEELEIVWNNIKAEARTLADCEPMLASFYHATLLKHENLGSALSYMLANKLSSPIMPAIAIREVVEEAYAADPEMIASAACDIQAVRTRDPAVDKYSTPLLYLKGFHALQAYRIGHWLWNQGRRALAIFLQNQVSVTFQVDIHPAAKIGRGIMLDHATGIVVGETAVIENDVSILQSVTLGGTGKSGGDRHPKIREGVMIGAGAKILGNIEVGRGAKIGAGSVVLQPVPPHTTAAGVPARIVGKPDSDKPSMDMDQH | – | – | – | 0.328 | 7.5 | 7.5
4 | cysE-Del258: carboxyterminal deletion of 15 amino acids, terminal Gln258 (protein, UniProt P0A9D4 1-258, looked up, fragment) MSCEELEIVWNNIKAEARTLADCEPMLASFYHATLLKHENLGSALSYMLANKLSSPIMPAIAIREVVEEAYAADPEMIASAACDIQAVRTRDPAVDKYSTPLLYLKGFHALQAYRIGHWLWNQGRRALAIFLQNQVSVTFQVDIHPAAKIGRGIMLDHATGIVVGETAVIENDVSILQSVTLGGTGKSGGDRHPKIREGVMIGAGAKILGNIEVGRGAKIGAGSVVLQPVPPHTTAAGVPARIVGKPDSDKPSMDMDQ | – | – | – | 0.256 | 5 | 5
5 | cysE-Del257: carboxyterminal deletion of 16 amino acids, terminal Asp257 (protein, UniProt P0A9D4 1-257, looked up, fragment) MSCEELEIVWNNIKAEARTLADCEPMLASFYHATLLKHENLGSALSYMLANKLSSPIMPAIAIREVVEEAYAADPEMIASAACDIQAVRTRDPAVDKYSTPLLYLKGFHALQAYRIGHWLWNQGRRALAIFLQNQVSVTFQVDIHPAAKIGRGIMLDHATGIVVGETAVIENDVSILQSVTLGGTGKSGGDRHPKIREGVMIGAGAKILGNIEVGRGAKIGAGSVVLQPVPPHTTAAGVPARIVGKPDSDKPSMDMD | – | – | – | 0.394 | 7.5 | 7.5
6 | cysE-Del256: carboxyterminal deletion of 17 amino acids, terminal Met256 (protein, UniProt P0A9D4 1-256, looked up, fragment) MSCEELEIVWNNIKAEARTLADCEPMLASFYHATLLKHENLGSALSYMLANKLSSPIMPAIAIREVVEEAYAADPEMIASAACDIQAVRTRDPAVDKYSTPLLYLKGFHALQAYRIGHWLWNQGRRALAIFLQNQVSVTFQVDIHPAAKIGRGIMLDHATGIVVGETAVIENDVSILQSVTLGGTGKSGGDRHPKIREGVMIGAGAKILGNIEVGRGAKIGAGSVVLQPVPPHTTAAGVPARIVGKPDSDKPSMDM | – | – | – | 0.366 | 12.5 | 12.5
7 | cysE-Del250: carboxyterminal deletion of 23 amino acids, terminal Asp250 (protein, UniProt P0A9D4 1-250, looked up, fragment) MSCEELEIVWNNIKAEARTLADCEPMLASFYHATLLKHENLGSALSYMLANKLSSPIMPAIAIREVVEEAYAADPEMIASAACDIQAVRTRDPAVDKYSTPLLYLKGFHALQAYRIGHWLWNQGRRALAIFLQNQVSVTFQVDIHPAAKIGRGIMLDHATGIVVGETAVIENDVSILQSVTLGGTGKSGGDRHPKIREGVMIGAGAKILGNIEVGRGAKIGAGSVVLQPVPPHTTAAGVPARIVGKPDSD | – | – | – | 0.405 | 20 | 20
8 | cysE-Del249: carboxyterminal deletion of 24 amino acids, terminal Ser249 (protein, UniProt P0A9D4 1-249, looked up, fragment) MSCEELEIVWNNIKAEARTLADCEPMLASFYHATLLKHENLGSALSYMLANKLSSPIMPAIAIREVVEEAYAADPEMIASAACDIQAVRTRDPAVDKYSTPLLYLKGFHALQAYRIGHWLWNQGRRALAIFLQNQVSVTFQVDIHPAAKIGRGIMLDHATGIVVGETAVIENDVSILQSVTLGGTGKSGGDRHPKIREGVMIGAGAKILGNIEVGRGAKIGAGSVVLQPVPPHTTAAGVPARIVGKPDS | – | – | – | 0.420 | 15 | 15
9 | cysE-Del248: carboxyterminal deletion of 25 amino acids, terminal Asp248 (protein, UniProt P0A9D4 1-248, looked up, fragment) MSCEELEIVWNNIKAEARTLADCEPMLASFYHATLLKHENLGSALSYMLANKLSSPIMPAIAIREVVEEAYAADPEMIASAACDIQAVRTRDPAVDKYSTPLLYLKGFHALQAYRIGHWLWNQGRRALAIFLQNQVSVTFQVDIHPAAKIGRGIMLDHATGIVVGETAVIENDVSILQSVTLGGTGKSGGDRHPKIREGVMIGAGAKILGNIEVGRGAKIGAGSVVLQPVPPHTTAAGVPARIVGKPD | – | – | – | 0.270 | 12.5 | 12.5

Reference: US6218168A, “Process for preparing O-acetylserine, L-cysteine and L-cysteine-related products” (Consortium fur elektrochemische Inudstrie GmbH, priority 1995, dated 2001)
